Results published in PMC5472695.

Target: His-tagged recombinant amelogenin (wild-type) (mouse) (UniProt P63277)
Assay: SDS PAGE with anti-amelogenin Western blot; crude 3% acetic acid E. coli extract and nickel column fractions; non-reducing SDS loading buffer, heated at 90°C for 1.5 min, 12% resolving gel; blot with rabbit anti-amelogenin antibody

His-tagged recombinant amelogenin (wild-type) (from UniProt P63277 17-210) (natural protein)
stoichiometry N: 2
